Data from PMC3720670, “Function and X-Ray crystal structure of Escherichia coli YfdE” (PLoS ONE, 2013).

Legend:
[1] = biological target: UctC (Acetobacter aceti strain 1023) (UniProt A9X6P9); assay: SEC; analytical gel filtration, Superdex 200 Hi-load 16/60, 50 mM Tris-HCl pH 8.0, 100 mM KCl; apparent solution molecular weights from retention times
[2] = substrate: CC(=O)SCCNC(=O)CCNC(=O)[C@H](O)C(C)(C)COP(=O)(O)OP(=O)(O)OC[C@H]1O[C@@H](n2cnc3c(N)ncnc32)[C@H](O)[C@@H]1OP(=O)(O)O; assay: HPLC of oxalyl-CoA formation, Michaelis-Menten fit; format: biochemical, Escherichia coli; conditions: 50 mM oxalate (subsaturating, value likely lower than true), 50 mM potassium phosphate, pH 6.7, parameter symbol, unit prefix and kcat unit not given, inferred
[3] = substrate: CC(=O)SCCNC(=O)CCNC(=O)[C@H](O)C(C)(C)COP(=O)(O)OP(=O)(O)OC[C@H]1O[C@@H](n2cnc3c(N)ncnc32)[C@H](O)[C@@H]1OP(=O)(O)O; assay: HPLC of oxalyl-CoA formation, Michaelis-Menten fit; format: biochemical, Escherichia coli; conditions: 50 mM oxalate (subsaturating, value likely lower than true), 50 mM potassium phosphate, pH 6.7, parameter symbol, unit prefix and kcat unit not given, inferred; remark: listed apart in the source
From the text: HPLC of oxalyl-CoA formation, Michaelis-Menten fit on H6YfdE

[4] = biological target: the molecule itself; assay: SEC; analytical gel filtration, Superdex 200 Hi-load 16/60, 50 mM Tris-HCl pH 8.0, 100 mM KCl; apparent solution molecular weights from retention times

## UctC (from UniProt A9X6P9 1-389) (enzyme)
[1]
  stoichiometry N: 2

B1: YfdE (Escherichia coli K-12) (protein)
chain: MTNNESKGPFEGLLVIDMTHVLNGPFGTQLLCNMGARVIKVEPPGHGDDTRTFGPYVDGQSLYYSFINHGKESVVLDLKNDHDKSIFINMLKQADVLAENFRPGTMEKLGFSWETLQEINPRLIYASSSGFGHTGPLKDAPAYDTIIQAMSGIMMETGYPDAPPVRVGTSLADLCGGVYLFSGIVSALYGREKSQRGAHVDIAMFDATLSFLEHGLMAYIATGKSPQRLGNRHPYMAPFDVFNTQDKPITICCGNDKLFSALCQALELTELVNDPRFSSNILRVQNQAILKQYIERTLKTQAAEVWLARIHEVGVPVAPLLSVAEAIKLPQTQARNMLIEAGGIMMPGNPIKISGCADPHVMPGAATLDQHGEQIRQEFSS
notes: untagged full-length, recombinant in E. coli BL21(DE3), plasmid pJK566 (Arg232 repaired), only partially purified; dimer
[2]; partially pure enzyme
  Km: 17 µM
  kcat: 11 s⁻¹

B2: H6YfdE (Escherichia coli K-12) (protein)
chain: MTNNESKGPFEGLLVIDMTHVLNGPFGTQLLCNMGARVIKVEPPGHGDDTRTFGPYVDGQSLYYSFINHGKESVVLDLKNDHDKSIFINMLKQADVLAENFRPGTMEKLGFSWETLQEINPRLIYASSSGFGHTGPLKDAPAYDTIIQAMSGIMMETGYPDAPPVRVGTSLADLCGGVYLFSGIVSALYGREKSQRGAHVDIAMFDATLSFLEHGLMAYIATGKSPQRLGNRHPYMAPFDVFNTQDKPITICCGNDKLFSALCQALELTELVNDPRFSSNILRVQNQAILKQYIERTLKTQAAEVWLARIHEVGVPVAPLLSVAEAIKLPQTQARNMLIEAGGIMMPGNPIKISGCADPHVMPGAATLDQHGEQIRQEFSS
notes: full-length with N-terminal hexahistidine tag kept, pET28a (pJK593), E. coli C41(DE3); last residue Ser381; dimer
[3]
  Km: 18 µM
  kcat: 12 s⁻¹

B3: YfdEH6 (Escherichia coli K-12) (protein)
chain: MTNNESKGPFEGLLVIDMTHVLNGPFGTQLLCNMGARVIKVEPPGHGDDTRTFGPYVDGQSLYYSFINHGKESVVLDLKNDHDKSIFINMLKQADVLAENFRPGTMEKLGFSWETLQEINPRLIYASSSGFGHTGPLKDAPAYDTIIQAMSGIMMETGYPDAPPVRVGTSLADLCGGVYLFSGIVSALYGREKSQRGAHVDIAMFDATLSFLEHGLMAYIATGKSPQRLGNRHPYMAPFDVFNTQDKPITICCGNDKLFSALCQALELTELVNDPRFSSNILRVQNQAILKQYIERTLKTQAAEVWLARIHEVGVPVAPLLSVAEAIKLPQTQARNMLIEAGGIMMPGNPIKISGCADPHVMPGAATLDQHGEQIRQEFSS
notes: full-length with C-terminal hexahistidine tag kept (stop codon converted to Ser), pJK594, E. coli C41(DE3)
[2]
  Km: 13 µM
  kcat: 6.9 s⁻¹

B4: YfdE fused to an N-terminal hexahistidine tag (H6YfdE) (enzyme, Escherichia coli, UniProt P76518 1-381, looked up)
chain: MTNNESKGPFEGLLVIDMTHVLNGPFGTQLLCNMGARVIKVEPPGHGDDTRTFGPYVDGQSLYYSFINHGKESVVLDLKNDHDKSIFINMLKQADVLAENFRPGTMEKLGFSWETLQEINPRLIYASSSGFGHTGPLKDAPAYDTIIQAMSGIMMETGYPDAPPVRVGTSLADLCGGVYLFSGIVSALYGREKSQRGAHVDIAMFDATLSFLEHGLMAYIATGKSPQRLGNRHPYMAPFDVFNTQDKPITICCGNDKLFSALCQALELTELVNDPRFSSNILRVQNQAILKQYIERTLKTQAAEVWLARIHEVGVPVAPLLSVAEAIKLPQTQARNMLIEAGGIMMPGNPIKISGCADPHVMPGAATLDQHGEQIRQEFSS
notes: YfdE, Escherichia coli; yfdE gene amplified from genomic DNA of a strain BW25113 derivative; last residue Ser381; Expressed from pET28a (NdeI/XhoI); The appendage and the first five to six residues are disordered in the crystal; also called acetyl-CoA:oxalate CoA-transferase; ACOCT; source: E. coli C41(DE3), purified (ammonium sulfate, metal-charged nitrilotriacetic acid column); not shown: His6, …
[4]
  stoichiometry N: 2
